Earlier results in paper PMC3184957, “Improving a Natural CaMKII Inhibitor by Random and Rational Design” (PLoS ONE, 2011).

Target: T1, CaMKIIα (Rattus norvegicus, UniProt P11275)
T1 construct: made in house; host or cells: baculovirus/Sf9 (CaMKII); bacteria (CaM)
Settings: background statement of the abstract, no reference given; read-out: IC50 of CaMKII inhibition by CaM-KIIN
Procedure: Background CaM-KIIN has evolved to inhibit stimulated and autonomous activity of the Ca^2+/calmodulin (CaM)-dependent protein kinase II (CaMKII) efficiently, selectively, and potently (IC50 ∼100 nM). The CN class of peptides, derived from the inhibitory region of CaM-KIIN, provides powerful new tools to study CaMKII functions. The goal of this study was to identify the residues required for CaMKII inhibition, and to assess if artificial mutations could further improve the potency achieved during evolution. Methodology/Principal Findings First, the minimal region with full inhibitory potency wa ...

B1: CaM-KIIN: natural CaMKII inhibitor protein expressed in brain (protein, UniProt Q7Z7J9 1-78, looked up)
Calcium/calmodulin-dependent …: MSEVLPYGDEKLSPYGDGGDVGQIFSCRLQDTNNFFGAGQNKRPPKLGQIGRSKRVVIEDDRIDDVLKNMTDKAPPGV
  IC50: ~100 nM
